Where a chain is given by its changes, count along the chain named.
B1: anti-IL-18BP antibody variant BP-04.32 (antibody, V domains shown)
VH: QVQLVQSGAEVKKPGASVKVSCKASGYTFTDYDMHWVRQAPGQGLEWMGIYSTYYGDVSYAQKFQGRVTMTRDKSTSTVYMELSSLRSEDTAVYYCARSGTYYYGTRESHALDYWGQGTLVTVSS
VL: DIQMTQSPSSVSASVGDRVTITCRASDNVYSNLAWYQQKPGKAPKLLIYGAISLADGVPSRFSGSGSGTDFTLTISSLQPEDFATYYCQHFWGNPYTFGQGTKLEIK
B2: anti-IL-18BP antibody variant BP-04.02 (antibody, V domains shown)
VH: B1 VH with M34L, Y51I, T101M
VL: B1 VL
B3: anti-IL-18BP antibody variant BP-04.22 (antibody, V domains shown)
VH: B1 VH with Y51I, D57V, F64K
VL: B1 VL
B4: anti-IL-18BP antibody variant BP-04.26 (antibody, V domains shown)
VH: B1 VH with D57V
VL: B1 VL
B5: anti-IL-18BP antibody variant BP-04.23 (antibody, V domains shown)
VH: B1 VH with L112F
VL: B1 VL
B6: anti-IL-18BP antibody variant BP-04.27 (antibody, V domains shown)
VH: B1 VH with Y51I, L112F
VL: B1 VL
B7: anti-IL-18BP antibody variant BP-04.05 (antibody, V domains shown)
VH: B1 VH with Y51I, D57V, F64K, L112F
VL: B1 VL
B8: anti-IL-18BP antibody variant BP-04.15 (antibody, V domains shown)
VH: B1 VH with Y51I, Y103N, A111P
VL: B1 VL
B9: anti-IL-18BP antibody variant BP-04.03 (antibody, V domains shown)
VH: B1 VH with Y51I, D90N, S109Q
VL: B1 VL
B10: anti-IL-18BP antibody variant BP-04.29 (antibody, V domains shown)
VH: B1 VH with Y51I, Y103N
VL: B1 VL
B11: anti-IL-18BP antibody variant BP-04.07 (antibody, V domains shown)
VH: B1 VH with Y51I, D57V, F64K, Y103N
VL: B1 VL
B12: anti-IL-18BP antibody variant BP-04.25 (antibody, V domains shown)
VH: B1 VH with Y103N
VL: B1 VL
B13: anti-IL-18BP antibody variant BP-04.28 (antibody, V domains shown)
VH: B1 VH with Y51I, A111P
VL: B1 VL
B14: anti-IL-18BP antibody variant BP-04.08 (antibody, V domains shown)
VH: B1 VH with F64K, Y103N
VL: B1 VL
B15: anti-IL-18BP antibody variant BP-04.09 (antibody, V domains shown)
VH: B1 VH with D57V, L112F
VL: B1 VL

Target: T1, Avi/His-HuIL18BPa (recombinant human IL-18BP isoform A with Avi and poly-His tags) (human, biotinylated with BirA on the Avi tag in some assays)
T1 chain: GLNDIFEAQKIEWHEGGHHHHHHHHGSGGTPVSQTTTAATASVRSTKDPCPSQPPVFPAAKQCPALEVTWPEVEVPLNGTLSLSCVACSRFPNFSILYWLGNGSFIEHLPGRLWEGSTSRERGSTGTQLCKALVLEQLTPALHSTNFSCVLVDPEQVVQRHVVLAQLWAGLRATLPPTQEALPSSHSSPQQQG
Test: cell-based or functional assay

Row | Binder | EC50 of IFNγ release, human PBMCs
1 | B1 | 0.838 nM
2 | B2 | 41.5 nM
3 | B3 | 7.71 nM
4 | B4 | 36.2 nM
5 | B5 | 146 nM
6 | B6 | 1.28 nM
7 | B7 | 3.18 nM
8 | B8 | 12.3 nM
9 | B9 | 10.5 nM
10 | B10 | 3.53 nM
11 | B11 | 4.3 nM
12 | B12 | 5.05 nM
13 | B13 | 71.2 nM
14 | B14 | 174 nM
15 | B15 | 3.74 nM

Target: T2, Avi/HisMsIL18BPd (recombinant mouse IL-18BP with Avi and poly-His tags) (mouse, biotinylated with BirA on the Avi tag in some assays)
T2 chain: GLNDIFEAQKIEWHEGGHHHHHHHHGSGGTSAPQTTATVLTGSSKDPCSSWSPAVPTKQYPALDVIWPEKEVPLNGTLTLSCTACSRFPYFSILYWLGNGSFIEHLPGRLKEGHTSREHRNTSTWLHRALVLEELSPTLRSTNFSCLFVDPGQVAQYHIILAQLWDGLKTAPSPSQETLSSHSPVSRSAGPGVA
Test: cell-based or functional assay

Row | Binder | EC50 of IFNγ release, mouse splenocytes
16 | B1 | 9.61 nM
17 | B2 | 12.3 nM
18 | B3 | 368 nM
19 | B4 | 6.02 nM
20 | B5 | 3.5 nM
21 | B6 | 39.6 nM
22 | B7 | 4.92 nM
23 | B8 | 43.1 nM
24 | B9 | 0.881 nM
25 | B10 | 45.5 nM
26 | B11 | 51.9 nM
27 | B12 | 28.9 nM
28 | B13 | 134 nM
29 | B14 | 94.1 nM
30 | B15 | 2.04 nM

Target: T1, Avi/His-HuIL18BPa (recombinant human …)
Test: SPR Biacore T200, IgG captured on Protein A/G

Row | Binder | Kd | koff | kon
31 | B1 | 20 nM | 0.0074 s⁻¹ | 370000 M⁻¹ s⁻¹
32 | B7 | 0.67 nM | 0.00034 s⁻¹ | 510000 M⁻¹ s⁻¹
33 | B8 | 12 nM | 0.0028 s⁻¹ | 240000 M⁻¹ s⁻¹
34 | B9 | 1.9 nM | 0.00091 s⁻¹ | 470000 M⁻¹ s⁻¹
35 | B10 | 16 nM | 0.0062 s⁻¹ | 390000 M⁻¹ s⁻¹
36 | B11 | 1.9 nM | 0.00068 s⁻¹ | 350000 M⁻¹ s⁻¹
37 | B12 | 21 nM | 0.0061 s⁻¹ | 300000 M⁻¹ s⁻¹
38 | B13 | 4.7 nM | 0.0019 s⁻¹ | 410000 M⁻¹ s⁻¹
39 | B14 | 16 nM | 0.0035 s⁻¹ | 210000 M⁻¹ s⁻¹
40 | B15 | 0.52 nM | 0.00028 s⁻¹ | 530000 M⁻¹ s⁻¹

Target: T3, His/Avi-CynoIL18BP (recombinant cynomolgus IL-18BP with His and Avi tags) (cynomolgus monkey)
T3 construct: also called cynomolgus IL-18BP-Avi-His
T3 chain: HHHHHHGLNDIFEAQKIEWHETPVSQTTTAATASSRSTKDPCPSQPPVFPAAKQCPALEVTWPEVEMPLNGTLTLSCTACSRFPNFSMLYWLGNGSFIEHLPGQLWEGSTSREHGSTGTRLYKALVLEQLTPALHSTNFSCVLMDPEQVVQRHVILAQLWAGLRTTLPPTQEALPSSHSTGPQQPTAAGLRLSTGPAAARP
Test: SPR Biacore T200, IgG captured on Protein A/G

Row | Binder | Kd | koff | kon
41 | B1 | 59 nM | 0.02 s⁻¹ | 340000 M⁻¹ s⁻¹
42 | B7 | 0.83 nM | 0.00038 s⁻¹ | 460000 M⁻¹ s⁻¹
43 | B8 | 20 nM | 0.004 s⁻¹ | 200000 M⁻¹ s⁻¹
44 | B9 | 3.1 nM | 0.0013 s⁻¹ | 420000 M⁻¹ s⁻¹
45 | B10 | 32 nM | 0.011 s⁻¹ | 340000 M⁻¹ s⁻¹
46 | B11 | 2.4 nM | 0.00076 s⁻¹ | 320000 M⁻¹ s⁻¹
47 | B12 | 100 nM | 0.022 s⁻¹ | 220000 M⁻¹ s⁻¹
48 | B13 | 7.2 nM | 0.0023 s⁻¹ | 330000 M⁻¹ s⁻¹
49 | B14 | 56 nM | 0.014 s⁻¹ | 260000 M⁻¹ s⁻¹
50 | B15 | 1.3 nM | 0.0006 s⁻¹ | 450000 M⁻¹ s⁻¹

Reference: patent US20250333523A1 (Alector, published 2025)
